Experimental data published in publication PMC10897159, “Structural insights into the activation mechanism of antimicrobial GBP1” (The EMBO Journal, 2024).
Where a chain is given by its changes, count along the chain named. Names may count otherwise.

B1: GBP1 D199A, non-farnesylated (natural protein, human, UniProt P32455 1-592, looked up)
chain: MASEIHMTGPMCLIENTNGRLMANPEALKILSAITQPMVVVAIVGLYRTGKSYLMNKLAGKKKGFSLGSTVQSHTKGIWMWCVPHPKKPGHILVLLDTEGLGDVEKGDNQNDSWIFALAVLLSSTFVYNSIGTINQQAMDQLYYVTELTHRIRSKSSPDENENEVEDSADFVSFFPDFVWTLRDFSLDLEADGQPLTPAEYLTYSLKLKKGTSQKDETFNLPRLCIRKFFPKKKCFVFDRPVHRRKLAQLEKLQDEELDPEFVQQVADFCSYIFSNSKTKTLSGGIQVNGPRLESLVLTYVNAISSGDLPCMENAVLALAQIENSAAVQKAIAHYEQQMGQKVQLPTETLQELLDLHRDSEREAIEVFIRSSFKDVDHLFQKELAAQLEKKRDDFCKQNQEASSDRCSALLQVIFSPLEEEVKAGIYSKPGGYRLFVQKLQDLKKKYYEEPRKGIQAEEILQTYLKSKESMTDAILQTDQTLTEKEKEIEVERVKAESAQASAKMLQEMQRKNEQMMEQKERSYQEHLKQLTEKMENDRVQLLKEQERTLALKLQEQEQLLKEGFQKESRIMKNEIQDLQTKMRRRKACTIS
notes: GBP1, human, full-length construct with D199A in helix α4; also called pivot point mutant; source: E. coli, pQE-80L, purified (Ni Sepharose HP, Superdex 200)
B2: GBP1 D199K, non-farnesylated (natural protein, human, UniProt P32455 1-592, looked up)
chain: B1 chain with A199K
notes: GBP1, human, full-length construct with D199K in helix α4; also called pivot point mutant; source: E. coli, pQE-80L, purified (Ni Sepharose HP, Superdex 200)
B3: GBP1 Δ207-213, farnesylated (natural protein, human, UniProt P32455 1-592, looked up)
chain: MASEIHMTGPMCLIENTNGRLMANPEALKILSAITQPMVVVAIVGLYRTGKSYLMNKLAGKKKGFSLGSTVQSHTKGIWMWCVPHPKKPGHILVLLDTEGLGDVEKGDNQNDSWIFALAVLLSSTFVYNSIGTINQQAMDQLYYVTELTHRIRSKSSPDENENEVEDSADFVSFFPDFVWTLRDFSLDLEADGQPLTPDEYLTYSLGGGSGGGSQKDETFNLPRLCIRKFFPKKKCFVFDRPVHRRKLAQLEKLQDEELDPEFVQQVADFCSYIFSNSKTKTLSGGIQVNGPRLESLVLTYVNAISSGDLPCMENAVLALAQIENSAAVQKAIAHYEQQMGQKVQLPTETLQELLDLHRDSEREAIEVFIRSSFKDVDHLFQKELAAQLEKKRDDFCKQNQEASSDRCSALLQVIFSPLEEEVKAGIYSKPGGYRLFVQKLQDLKKKYYEEPRKGIQAEEILQTYLKSKESMTDAILQTDQTLTEKEKEIEVERVKAESAQASAKMLQEMQRKNEQMMEQKERSYQEHLKQLTEKMENDRVQLLKEQERTLALKLQEQEQLLKEGFQKESRIMKNEIQDLQTKMRRRKACTIS
modifications: farnesyl moiety at the C-terminal CaaX box motif
notes: GBP1, human, full-length construct; also called helix α4’ variant
B4: isolated LG domain of GBP1 Δ207-213 (domain or fragment, human, UniProt P32455 1-317, looked up)
chain: MASEIHMTGPMCLIENTNGRLMANPEALKILSAITQPMVVVAIVGLYRTGKSYLMNKLAGKKKGFSLGSTVQSHTKGIWMWCVPHPKKPGHILVLLDTEGLGDVEKGDNQNDSWIFALAVLLSSTFVYNSIGTINQQAMDQLYYVTELTHRIRSKSSPDENENEVEDSADFVSFFPDFVWTLRDFSLDLEADGQPLTPDEYLTYSLGGGSGGGSQKDETFNLPRLCIRKFFPKKKCFVFDRPVHRRKLAQLEKLQDEELDPEFVQQVADFCSYIFSNSKTKTLSGGIQVNGPRLESLVLTYVNAISSGDLPCMENAVL
notes: LG domain of GBP1, human; stop codon in place of A318; also called α4’ variant LG domain construct; source: E. coli, pQE-80L, purified (Ni Sepharose HP, Superdex 200)
B5: GBP1 Δ207-216, farnesylated (natural protein, human, UniProt P32455 1-592, looked up)
chain: MASEIHMTGPMCLIENTNGRLMANPEALKILSAITQPMVVVAIVGLYRTGKSYLMNKLAGKKKGFSLGSTVQSHTKGIWMWCVPHPKKPGHILVLLDTEGLGDVEKGDNQNDSWIFALAVLLSSTFVYNSIGTINQQAMDQLYYVTELTHRIRSKSSPDENENEVEDSADFVSFFPDFVWTLRDFSLDLEADGQPLTPDEYLTYSLGGGSETFNLPRLCIRKFFPKKKCFVFDRPVHRRKLAQLEKLQDEELDPEFVQQVADFCSYIFSNSKTKTLSGGIQVNGPRLESLVLTYVNAISSGDLPCMENAVLALAQIENSAAVQKAIAHYEQQMGQKVQLPTETLQELLDLHRDSEREAIEVFIRSSFKDVDHLFQKELAAQLEKKRDDFCKQNQEASSDRCSALLQVIFSPLEEEVKAGIYSKPGGYRLFVQKLQDLKKKYYEEPRKGIQAEEILQTYLKSKESMTDAILQTDQTLTEKEKEIEVERVKAESAQASAKMLQEMQRKNEQMMEQKERSYQEHLKQLTEKMENDRVQLLKEQERTLALKLQEQEQLLKEGFQKESRIMKNEIQDLQTKMRRRKACTIS
modifications: farnesyl moiety at the C-terminal CaaX box motif
notes: as for B3

Assays:
[1] = biological target: the molecule itself; assay: cross-linking; BS3 at 20-times molar excess, 20 µM protein, with 200 µM GDP, 300 µM AlCl3, 10 mM NaF (GDP•AlFx); 50 mM HEPES, 150 mM NaCl, 5 mM MgCl2; SDS-PAGE
[2] = biological target: the molecule itself; assay: SEC; analytical SEC (Superdex 200 5/150), 20 µM protein with 200 µM GDP, 300 µM AlCl3, 10 mM NaF (GDP•AlFx); 50 mM Tris-HCl pH 7.9, 150 mM NaCl, 5 mM MgCl2

Protein | binding result [1] | stoichiometry N [2]
B1 | binds | –
B2 | binds | –
B3 | binds | –
B4 | – | 2
B5 | binds | –
